# Numbering of substitutions follows the chain as printed. Names and notes keep the numbering of the source.
# B1: Clone 4b (protein)
# chain: MSRLDKSKVINSALELLNEVGIEGLTTRKLAQKLGVEQPTLYWHVKNKRALLDALAVEILARHHDYSLPAAGESWQSFLRNNAMSFRRALLRYRDRAKVHLGTRPDEKQYDTVETQLRFMTENGFSLRDGLYAISAVSHFTLGAVLEQQEHTAALTDRPAAPDENLPPLLREALQIMDSDDGEQAFLHGLESLIRGFEVQLTALLQIV
# modifications: revTetR4b
# B2: Clone 11 (protein)
# chain: B1 chain with R96G, V99E
# modifications: revTetR11
# B3: TetRrevAF1/4: revTetR(BD) N18K D95V G96V A97V (protein)
# chain: B1 chain with N18K, D95V, R96V, A97V
# modifications: Modified tetracycline repressor
# notes: revTetR(BD) N18K D95V G96V A97V
# B4: TetRrevAD2/13: revTetR(BD) E19D V20E E23K V57L I59N L60F A61A (protein)
# chain: B1 chain with E19D, V20E, E23K, V57L, I59N, L60F, R96G
# modifications: Modified tetracycline repressor
# notes: revTetR(BD) E19D V20E E23K V57L I59N L60F A61A
# B5: TetRrevAD2/4: revTetR(BD) L17F N18R D53N I59M A61T (protein)
# chain: B1 chain with L17F, N18R, D53N, I59M, A61T, R96G
# modifications: Modified tetracycline repressor
# notes: revTetR(BD) L17F N18R D53N I59M A61T
# B6: TetRrevAD2/12: revTetR(BD) E23H D53Y A56A E58Q I59T (protein)
# chain: B1 chain with E23H, D53Y, E58Q, I59T, R96G
# modifications: Modified tetracycline repressor
# notes: revTetR(BD) E23H D53Y A56A E58Q I59T
# B7: TetRrevAD1/2: revTetR(BD) N18Y L52L D53Y A54A I59T (protein)
# chain: B1 chain with N18Y, D53Y, I59T, R96G
# modifications: Modified tetracycline repressor
# notes: revTetR(BD) N18Y L52L D53Y A54A I59T
# B8: TetRrevAF2/7: revTetR(BD) Y93C D95E A97T (protein)
# chain: B1 chain with Y93C, D95E, R96G, A97T
# modifications: Modified tetracycline repressor
# notes: revTetR(BD) Y93C D95E A97T
# B9: TetRrevAD1/6: revTetR(BD) N18Y E23V D53A A54S L55L A56S A61T H63Y (protein)
# chain: B1 chain with N18Y, E23V, D53A, A54S, A56S, A61T, H63Y, R96G
# modifications: Modified tetracycline repressor
# notes: revTetR(BD) N18Y E23V D53A A54S L55L A56S A61T H63Y
# B10: TetRrevAD3/2: revTetR(BD) A56P E58H A61A H63Y (protein)
# chain: B1 chain with A56P, E58H, H63Y, R96G
# modifications: Modified tetracycline repressor
# notes: revTetR(BD) A56P E58H A61A H63Y
# B11: TetRrevAF1/3: revTetR(BD) G24G D95A G96R (protein)
# chain: B1 chain with D95A
# modifications: Modified tetracycline repressor
# notes: revTetR(BD) G24G D95A G96R
# B12: TetRrevAF1/11: revTetR(BD) L14I V20V I22L R94H A97A V99E (protein)
# chain: B1 chain with L14I, I22L, R94H, R96G, V99E
# modifications: Modified tetracycline repressor
# notes: revTetR(BD) L14I V20V I22L R94H A97A V99E
# B13: TetRrevAD2/2: revTetR(BD) L14I G21R A56V (protein)
# chain: B1 chain with L14I, G21R, A56V, R96G
# modifications: Modified tetracycline repressor
# notes: revTetR(BD) L14I G21R A56V
# B14: TetRrevAF6/12: revTetR(BD) L14F E15E G96V K98E V99L L101P (protein)
# chain: B1 chain with L14F, R96V, K98E, V99L, L101P
# modifications: Modified tetracycline repressor
# notes: revTetR(BD) L14F E15E G96V K98E V99L L101P
# B15: TetRrevAtc4-10: revTetR(BD) I59N L60F A61G (protein)
# chain: B1 chain with I59N, L60F, A61G, R96G
# modifications: Modified tetracycline repressor
# notes: revTetR(BD) I59N L60F A61G
# B16: TetRrevAF1/7: revTetR(BD) G96R L101I (protein)
# chain: B1 chain with L101I
# modifications: Modified tetracycline repressor
# notes: revTetR(BD) G96R L101I
# B17: TetRrevAF1/8: revTetR(BD) G24G Y93N L101F G102D (protein)
# chain: B1 chain with Y93N, R96G, L101F, G102D
# modifications: Modified tetracycline repressor
# notes: revTetR(BD) G24G Y93N L101F G102D
# B18: TetRrevAF2/5: revTetR(BD) L14R E!9E D95H L101P (protein)
# chain: B1 chain with L14R, D95H, R96G, L101P
# modifications: Modified tetracycline repressor
# notes: revTetR(BD) L14R E!9E D95H L101P
# B19: TetRrevAF1/5: revTetR(BD) L14V G24G Y93D R94G D95G (protein)
# chain: B1 chain with L14V, Y93D, R94G, D95G, R96G
# modifications: Modified tetracycline repressor
# notes: revTetR(BD) L14V G24G Y93D R94G D95G
# B20: TetRrevAD2/6: revTetR(BD) N18Y G21E E23K (protein)
# chain: B1 chain with N18Y, G21E, E23K, R96G
# modifications: Modified tetracycline repressor
# notes: revTetR(BD) N18Y G21E E23K
# Test system: tet operator sequence
# Assay: β-galactosidase activity of a tetracycline-regulated promoter in transformed E. coli with revTetR, in the presence and absence of anhydrotetracycline (atc)
# Type: cell-based, Escherichia coli
# Details: 28° C.
# Protocol: The relative activity of revTetR repressors was determined at 28° C. and 37° C. for each clone by measuring β-galactosidase activity of a tetracycline-regulated promoter in transformed Escherichia coli in the presence and absence of the tetracycline analog, anhydrotetracycline (atc). The relative β-galactosidase activity was measured in standard Miller units and is presented as the percent of maximal expression as measured in the absence of Tet repressor. […] With respect to each mutant, as well as the wild-type controls, FIG. 2 provides two horizontal bars; the upper horizontal bar represents the level of β-galactosidase activity in the absence of anhydrotetracycline (−atc) while the lower horizontal bar represents the level of β-galactosidase activity in the presence of anhydrotetracycline (+atc).
# The pool of mutated Tet repressors was cloned into plasmid pWH1411 (Baumeister et al., 1992, Proteins: Struct. Funct. Genet. 14: 168-77), which carries a TetR(B) gene, to provide a TetR(BD) chimera that included, as the amino-terminal portion, amino acid residues 1 to 50 of the TetR(B) gene and, as the carboxyl-terminal portion, amino acid residues 51 to 208 of the TetR(D) gene. The resulting plasmid pool was screened in a genetic assay which positively selects for a functional interaction between a Tet repressor and its cognate operator using E. coli strain WH207(λWH25) (the construction of this strain is described in detail in Wissmann et al., (1991) Genetics 128: 225-32). In this E. coli strain, tet operators direct the expression of divergently arranged β-galactosidase (lacZ) and Lac repressor (lacI) genes and the lac regulatory region directs the expression of a galactokinase (galK) gene on plasmid pWH414. Binding of Tet repressors to tet operators turns off transcription of the lacI and lacZ genes. The absence of Lac repressor allows for expression of the galK gene, which enables the E. coli strain to use galactose as a sole carbon source, which serves as one marker. The lacZ^− phenotype serves as a second marker. Thus, bacteria containing Tet repressors which bind to tet operators, have a Gal^+, lacZ^− phenotype. Bacteria containing wild-type Tet repressors have a Gal^+, lacZ^− phenotype in the absence of tetracycline. Modified “reverse” Tet repressors (revTetR) were selected based upon a Gal^+, lacZ^− phenotype in the presence of tetracycline.
# The ability of each revTetR clone to bind to its cognate tet operator sequence and regulate transcription in a prokaryotic organism, Escherichia coli, in the presence and absence of a tetracycline analog (anhydrotetracycline, atc) was determined (Table 3, FIG. 2). The relative ratios of non-repressed to repressed levels of transcription for the 15 clones range from about 1.4-fold to about 50-fold at 28° C. and from about 1.3-fold to 40-fold at 37° C. For example, clone 4b comprising an amino acid substitution of glutamic acid for glycine at position 96 (e.g., SEQ ID NO. 24) repressed transcription 19-fold at 37° C. but to a less extent at 28° C. (5.7-fold, Table 3). Furthermore, clones 14, 5a and 7 comprising the arginine for glycine substitution at position 96 and further comprising a substitution or substitutions of serine for threonine at position 103 and valine for glutamic acid at position 114; leucine for proline at position 159; or glutamine to histidine at position 188, respectively, have pronouncedly different activities.
# wherein each underlined base was present in approximately 85% of the oligonucleotides, while the remaining approximately 15% of the oligonucleotides contained one of the other three, non-wild type bases at that position. Similar mutagenic, partially randomized oligonucleotides were prepared for mutagenesis of the coding regions for amino acids 14-25 and 93-102. It was predicted that, according to a binomial distribution, each oligonucleotide would contain three to four mutations. […]
row,Molecule,repression of transcription (ratio of non-repressed to repressed levels of transcription) [fold]
1,B1,5.7
2,B2,18

# Same assay, conditions: 28° C.; E. coli; absence vs presence of anhydrotetracycline
row,Molecule,"Relative Activity of revTetR repressors, 28° C. ratio (non-repressed to repressed levels of transcription)"
1,B1,5.7
2,B2,18.1

# Same assay, conditions: 37° C.
row,Molecule,repression of transcription (ratio of non-repressed to repressed levels of transcription) [fold]
1,B1,19
2,B2,41

# Same assay, conditions: 37° C.; E. coli; absence vs presence of anhydrotetracycline
row,Molecule,"Relative Activity of revTetR repressors, 37° C. ratio (non-repressed to repressed levels of transcription)"
1,B1,19.0
2,B2,41.1

# Same assay, conditions: RevTetR isolate cultured in the absence of anhydrotetracycline (ATC)
row,Molecule,"β-Galactosidase Activity, Cultured Without ATC"
1,B3,81.2613
2,B4,71.1255
3,B5,32.2603
4,B6,73.5981
5,B7,84.85
6,B8,70.3163
7,B9,85.6043
8,B10,60.3284
9,B11,59.773
10,B12,96.2362
11,B13,94.968
12,B14,82.6734
13,B15,69.401
14,B16,72.199
15,B17,42.088
16,B18,97.8373
17,B19,102.015
18,B20,89.5374

# Same assay, conditions: RevTetR isolate cultured in the presence of anhydrotetracycline (ATC)
row,Molecule,"β-Galactosidase Activity, Cultured With ATC"
1,B3,13.459
2,B4,1.3355
3,B5,1.0068
4,B6,1.2806
5,B7,1.6137
6,B8,2.8977
7,B9,2.5079
8,B10,3.5891
9,B11,1.2536
10,B12,1.1578
11,B13,5.2312
12,B14,1.3259
13,B15,11.275
14,B16,2.2753
15,B17,1.1643
16,B18,2.4067
17,B19,1.1988
18,B20,3.8811

# — patent US20030186281A1, “Modified tetracycline repressor protein compositions and methods of use” (priority 2001, published 2003)
